The values that follow come from patent US20080148430.

In data set [1] the target is T1, Phos32 with serine S21 mutated to aspartic acid.
T1 chain: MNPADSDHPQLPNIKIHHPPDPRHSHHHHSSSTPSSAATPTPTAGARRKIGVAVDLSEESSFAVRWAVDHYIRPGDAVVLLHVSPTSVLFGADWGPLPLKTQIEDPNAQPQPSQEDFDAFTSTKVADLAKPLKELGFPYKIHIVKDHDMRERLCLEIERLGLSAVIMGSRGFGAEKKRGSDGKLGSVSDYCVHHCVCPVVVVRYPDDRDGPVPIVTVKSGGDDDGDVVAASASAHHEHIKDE

In data set [2] the target is T2, Phos32 with serine S21 mutated to alanine.
T2 chain: T1 chain with D21A

Data set [3] addresses T3, GST fusion containing the first 46 amino acids of Phos32.
T3 chain: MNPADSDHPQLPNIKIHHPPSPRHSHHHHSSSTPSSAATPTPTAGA

In the next data set the target is T4, AtPhos34 (At4g27320).
T4 chain: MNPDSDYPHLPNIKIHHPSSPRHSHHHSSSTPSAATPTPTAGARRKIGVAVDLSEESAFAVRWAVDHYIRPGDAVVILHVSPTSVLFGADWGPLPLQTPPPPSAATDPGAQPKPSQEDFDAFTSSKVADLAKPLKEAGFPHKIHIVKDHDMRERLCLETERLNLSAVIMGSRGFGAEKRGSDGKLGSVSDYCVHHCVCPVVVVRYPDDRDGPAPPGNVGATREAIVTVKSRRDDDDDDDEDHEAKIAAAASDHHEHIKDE

In the next data set the target is T5, AtPhos32 (At5g54430).
T5 chain: T1 chain with D21S

Data set [4] addresses T6, Myelin Basic Protein (MBP) Bovine P02687.
T6 chain: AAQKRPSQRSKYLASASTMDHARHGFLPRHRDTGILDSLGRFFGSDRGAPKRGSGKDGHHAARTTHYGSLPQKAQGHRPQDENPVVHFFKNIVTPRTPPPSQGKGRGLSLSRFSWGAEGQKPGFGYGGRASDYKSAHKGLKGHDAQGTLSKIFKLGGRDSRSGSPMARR

Changes are numbered by the printed parent chain.

B1: AtMPK6 (protein)
chain: MDGGSGQPAADTEMTEAPGGFPAAAPSPQMPGIENIPATLSHGGRFIQYNIFGNIFEVTAKYKPPIMPIGKGAYGIVCSAMNSETNESVAIKKIANAFDNKIDAKRTLREIKLLRHMDHENIVAIRDIIPPPLRNAFNDVYIAYELMDTDLHQIIRSNQALSEEHCQYFLYQILRGLKYIHSANVLHRDLKPSNLLLNANCDLKICDFGLARVTSESDFMTEYVVTRWYRAPELLLNSSDYTAAIDVWSVGCIFMELMDRKPLFPGRDHVHQLRLLMELIGTPSEEELEFLNENAKRYIRQLPPYPRQSITDKFPTVHPLAIDLIEKMLTFDPRRRITVLDALAHPYLNSLHDISDEPECTIPFNFDFENHALSEEQMKELIYREALAFNPEYQQ
In the case of B1, the “in vitro kinase assay” value was “mutation of this residue to alanine or aspartic acid abolishes phosphorylation by MAPKs” in data set [1]; “mutation of this residue to alanine or aspartic acid abolishes phosphorylation by MAPKs” in data set [2]; “the first 46 amino acids of Phos32 protein are sufficient for MAP kinase recognition and phosphorylation” in data set [3]. In addition, the “in-solution kinase assays with 32P-gammaATP” value with AtPhos34 (At4g27320) and in the data set with AtPhos32 (At5g54430) was “we found that these proteins are excellent MAP kinase substrates” throughout.

B2: AtMPK3 (protein)
chain: MNTGGGQYTDFPAVETHGGQFISYDIFGSLFEITSKYRPPIIPIGRGAYGIVCSVLDTETNELVAMKKIANAFDNHMDAKRTLREIKLLRHLDHENIIAIRDVVPPPLRRQFSDVYISTELMDTDLHQIIRSNQSLSEEHCQYFLYQLLRGLKYIHSANIIHRDLKPSNLLLNANCDLKICDFGLARPTSENDFMTEYVVTRWYRAPELLLNSSDYTAAIDVWSVGCIFMELMNRKPLFPGKDHVHQMRLLTELLGTPTESDLGFTHNEDAKRYIRQLPNFPRQPLAKLFSHVNPMAIDLVDRMLTFDPNRRITVEQALNHQYLAKLHDPNDEPICQKPFSFEFEQQPLDEEQIKEMIYQEAIALNPTYG
In the case of B2, the “in vitro kinase assay” value is “mutation of this residue to alanine or aspartic acid abolishes phosphorylation by MAPKs” in data set [1]; “mutation of this residue to alanine or aspartic acid abolishes phosphorylation by MAPKs” in data set [2]; “the first 46 amino acids of Phos32 protein are sufficient for MAP kinase recognition and phosphorylation” in data set [3]. Moreover, the “level of phosphorylation in an in vitro kinase assay” value in data set [4] was “we used 2 µg of MBP in an in vitro kinase assay with AtMPK3 and compared the level of phosphorylation”; with AtPhos32 (At5g54430) it was “Phos32 is at least as good if not a better substrate than MBP for this MAP Kinase”. Also, the “in-solution kinase assays with 32P-gammaATP” value with AtPhos34 (At4g27320) and with AtPhos32 (At5g54430) was “we found that these proteins are excellent MAP kinase substrates” each time.
